According to PMC3790820, “A Rapid and High-Throughput Quantitation Assay of the Nuclear Factor κB Activity Using Fluorescence Correlation Spectroscopy in the Setting of Clinical Laboratories”:

Key:
[1] = molecular target: T1, NF-kB p50 (hr-p50) (human (recombinant), UniProt P19838 1-433); assay: competition (FCS); 868.0 us at 1 nM, 495.8 us at 50 nM competitor; TAMRA probe N1; 50 mM Tris-HCl pH 7.5, 250 mM NaCl, 1 mM EDTA, 2.5 mM DTT, 10% glycerol, 1 nM TAMRA probe, 1 ug poly(dI-dC), room temperature, 10 min; conditions: protein: commercial; chain copies: 2; hairpin, 22 bp stem, AAAA loop
[2] = molecular target: T1, NF-kB p50 (hr-p50); assay: competition (FCS); little effect at 1 and 50 nM competitor; TAMRA probe N1; 50 mM Tris-HCl pH 7.5, 250 mM NaCl, 1 mM EDTA, 2.5 mM DTT, 10% glycerol, 1 nM TAMRA probe, 1 ug poly(dI-dC), room temperature, 10 min; conditions: protein: commercial; chain copies: 2; hairpin, 21 bp stem, AAAA loop

T1 sequence (P19838 1-433): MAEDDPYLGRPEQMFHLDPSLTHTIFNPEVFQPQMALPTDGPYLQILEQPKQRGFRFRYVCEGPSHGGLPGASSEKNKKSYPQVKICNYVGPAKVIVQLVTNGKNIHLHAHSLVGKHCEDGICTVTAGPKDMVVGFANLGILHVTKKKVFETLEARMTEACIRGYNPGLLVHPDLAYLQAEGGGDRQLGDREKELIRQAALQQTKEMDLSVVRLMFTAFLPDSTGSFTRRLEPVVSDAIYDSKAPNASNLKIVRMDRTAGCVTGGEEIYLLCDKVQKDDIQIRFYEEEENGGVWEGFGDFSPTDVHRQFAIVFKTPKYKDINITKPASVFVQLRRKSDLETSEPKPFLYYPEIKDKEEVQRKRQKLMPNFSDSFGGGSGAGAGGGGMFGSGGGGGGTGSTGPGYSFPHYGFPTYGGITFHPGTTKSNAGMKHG

Row | Binder | binding result [1] | binding result [2]
1 | AGTTGAGGGGACTTTCCCAGGCAAAAGCCTGGGAAAGTCCCCTCAACT (structured_DNA) [wild-type competitor stem-loop] | binds | –
2 | CAGGCGCGTTTTGACCATCTTAAAAAAGATGGTCAAAACGCGCCTG (structured_DNA) [nonspecific competitor stem-loop] | – | no binding
